According to PMC8565784:

Tests used:
[1] = pQC-Fluc PV neutralisation; conditions: glycan gained; control: Q23 SOS gp160ΔCT parent
[2] = SDS-PAGE-Western blot of VLP Env; conditions: glycan gained; control: Q23 SOS gp160ΔCT parent

With Q23 Env: D49N the “other: neutralisation sensitivity” value [1] was “increases” and the expression_or_secretion [2] was “increases”.

With Q23 Env: D674N the “other: neutralisation sensitivity” value [1] was “increases” and the expression_or_secretion [2] was “decreases”.

For Q23 Env: D49N+D674N, the “other: neutralisation sensitivity” value [1] was “increases” and the expression_or_secretion [2] was “no change”.
